Assay results reported in paper PMC10987521, “An all-in-one tetrazine reagent for cysteine-selective labeling and bioorthogonal activable prodrug construction” (Nature Communications, 2024).
“Also recorded” adds a separate entry of the source.

Columns and labels:
[1] = Nano-structure characterization of peptide conjugates (Tyndall effect, DLS, zeta potential, TEM); assay type: physicochemical; details: 50 μM in H2O (2% DMSO), sonicated 10 min; mean of 3 measurements
Experimental: The second-order rate constant for the labeling reactions between tetrazine 1 and Cys was determined at 25 °C in PB (30% MeCN, 20 mM, pH 8.0) under second-order conditions using a 6000+ (Quawell) UV-Vis spectrophotometer. The concentrations of cysteine and tetrazine were identical. The specific difference in absorption wavelength (300 nm) between 1 and Cys-1 was measured over time. The second-order rate constant k2 was calculated from the slope of a plot of (1/c – 1/c0) versus time.
5. Competitive labeling reaction with other nucleophilic amino acids
For the competitive labeling experiment, 10 equiv. (2 mM) of N-Fmoc-Lys, N-Fmoc-Arg, Ser, Tyr, and 1.3 equiv. […] The resulting solution was maintained at 25 °C and monitored by LC –MS. […]
Each voTz analogue (1.1 equiv.) was added to a 0.25 mL vial containing solvent. […] The chromatogram peak areas of all relevant Cys -containing species were integrated, and the yiel d was determined using the following equation: Yield (%) = Iproduct/(Istarting + Iproduct + Ioxidation + Iside product) × 100, where Istarting, Iproduct, Ioxidation, and Iside product respectively represent the average ion counts of remaining starting material, product, oxidized starting material and any side product, if present 2. […]
DLS analyses and particle zeta potential values were determined using a Nano ZS ZEN 3690 instrument (Malvern […]

B16F10 cells = experiment: Cellular uptake of RGD-Dox over various time intervals using flow cytometry; assay type: cell-based, Mouse
Experimental: concentration at the indicated time .
10. In vivo release evaluation of the RGD-FL
Subsequently, the cells were stained […]
laser scanning microscope. […]
μM) for 60 min. […] Blocking studies were performed by
Cells were pre-treated with 18- […]
specific times using a confocal laser scanning microscope.
11. Cell viability assays
After the incubation period, the
Subsequently, the cells were trypsinized and underwent three rinses with PBS.

[2] = Accumulation of RGD-Dox at various time points in tumor tissues; assay type: in vivo, mice; details: for tissue level at time molar at 0.5 h / tissue level at time molar at 1 h / tissue level at time molar at 2 h / tissue level at time molar at 4 h / tissue level at time molar at 6 h: BALB/c nude, mouse, tumor tissue, iv, 3.67 umol⸱/kg
Experimental: 13. In vivo anticancer efficacy
13.1 The accumulation of RGD-Dox at various time points in tumor tissues When the tumor volume reached approximately 400 mm3, five mice in each group received an i.v. injection of 3.67 μmol⸱kg-1 RGD-Dox. After various time intervals, the mice were sacrificed, and tumor tissues were dissected. About 0.5 to 1 g of tissue was ground into a homogenate, and proteins were precipitated by the adding two volumes of acetonitrile (1 mL). After centrifugation, the supernatant was removed, concentrated to 100 µL, and 20 µL was used for HPLC–MS analysis. The RGD-Dox concentration in the sample was determined from a standard curve of the peak area of the characteristic absorption of RGD-Dox at 520 nm. […]

COc1cccc2c1C(=O)c1c(O)c3c(c(O)c1C2=O)C[C@@](O)(C(=O)CO)C[C@@H]3O[C@H]1C[C@H](NC(=O)OCc2nnc(CCSC[C@@H]3NC(=O)[C@@H](Cc4ccc(O)cc4)NC(=O)[C@H](CC(=O)O)NC(=O)CNC(=O)[C@H](CCCNC(=N)N)NC3=O)nn2)[C@H](O)[C@H](C)O1 [RGD-Dox]
average particle diameter (DLS) [1]: 168 nm
cellular uptake of RGD-Dox (flow cytometry) (B16F10 cells; 0.5 h, Data 1): 4477
cellular uptake of RGD-Dox (flow cytometry) (B16F10 cells; 0.5 h, Data 3): 4327
cellular uptake of RGD-Dox (flow cytometry) (B16F10 cells; 1 h, Data 3): 6221
cellular uptake of RGD-Dox (flow cytometry) (B16F10 cells; 2 h, Data 1): 10116
cellular uptake of RGD-Dox (flow cytometry) (B16F10 cells; 3 h, Data 3): 12247
cellular uptake of RGD-Dox (flow cytometry) (B16F10 cells; 4 h, Data 3): 12044
cellular uptake over time (flow cytometry) (B16F10 cells; B16F10, 10 μM, 37 °C, 0.5–6 h, 488/610 nm): rapid increase observed within the first 2 hours, followed by a plateau and saturation thereafter; also recorded: high cellular uptake after 2 h
accumulation at the tumor tissue over time ([2]; 3.67 μmol·kg^−1 i.v., 0-6 hours, HPLC–MS 520 nm, n = 5): continuous increase in the accumulation of RGD-Dox at the tumor site within the first 0-2 hours, followed by a gradual decrease
accumulation of RGD-Dox in tumor tissues ([2]; 6 h, Data 3): 0.09596 nmol/g
tissue level at time molar at 0.5 h ([2]; Data 1): 0.253 nmol/g
tissue level at time molar at 0.5 h ([2]; Data 2): 0.122 nmol/g
tissue level at time molar at 0.5 h ([2]; Data 3): 0.145 nmol/g
tissue level at time molar at 0.5 h ([2]; Data 4): 0.161 nmol/g
tissue level at time molar at 0.5 h ([2]; Data 5): 0.185 nmol/g
tissue level at time molar at 1 h ([2]; Data 1): 0.311 nmol/g
tissue level at time molar at 1 h ([2]; Data 2): 0.321 nmol/g
tissue level at time molar at 1 h ([2]; Data 3): 0.226 nmol/g
tissue level at time molar at 1 h ([2]; Data 4): 0.407 nmol/g
tissue level at time molar at 1 h ([2]; Data 5): 0.29 nmol/g
tissue level at time molar at 2 h ([2]; Data 1): 0.249 nmol/g
tissue level at time molar at 2 h ([2]; Data 2): 0.239 nmol/g
tissue level at time molar at 2 h ([2]; Data 3): 0.408 nmol/g
tissue level at time molar at 2 h ([2]; Data 4): 0.321 nmol/g
tissue level at time molar at 2 h ([2]; Data 5): 0.3 nmol/g
tissue level at time molar at 4 h ([2]; Data 1): 0.296 nmol/g
tissue level at time molar at 4 h ([2]; Data 2): 0.245 nmol/g
tissue level at time molar at 4 h ([2]; Data 3): 0.274 nmol/g
tissue level at time molar at 4 h ([2]; Data 4): 0.16 nmol/g
tissue level at time molar at 4 h ([2]; Data 5): 0.217 nmol/g
tissue level at time molar at 6 h ([2]; 6 h, Data 1): 0.0949 nmol/g
tissue level at time molar at 6 h ([2]; 6 h, Data 2): 0.0855 nmol/g
tissue level at time molar at 6 h ([2]; 6 h, Data 4): 0.0867 nmol/g
tissue level at time molar at 6 h ([2]; 6 h, Data 5): 0.129 nmol/g
